# Marks after values point to notes of the source that are not given here.
# Experiments:
# [1] = molecular target: T1, human PCSK9 (Homo sapiens, UniProt Q8NBP7, E620G/G670E/V474I); experiment: BIAcore solution equilibrium binding assay; conditions: hPCSK9, solution equilibrium
# T1 construct: made in house
# Text: Flow cell 3 was used as a background control. […] Although cPCSK9 has lower protein concentration observed from KinExA assay and SDS-gel, its concentration was not adjusted here since the concentration of cPCSK9 was not used for calculation of KD. […] FIG. 5B depicts the results from the solution equilibrium assay at three different hPCSK9 concentrations for hPCSK9. FIG. 5C depicts a similar set of results for mPCSK9. FIG. 5D depicts the results from the above biacore capture assay.
# [2] = molecular target: T2, PCSK9 (Homo sapiens, UniProt Q8NBP7); experiment: Phase 1 ascending single dose study in healthy subjects; type: in vivo
# T2 construct: endogenous in cells; host or cells: human subjects, in vivo
# T2 sequence (Q8NBP7 153-692): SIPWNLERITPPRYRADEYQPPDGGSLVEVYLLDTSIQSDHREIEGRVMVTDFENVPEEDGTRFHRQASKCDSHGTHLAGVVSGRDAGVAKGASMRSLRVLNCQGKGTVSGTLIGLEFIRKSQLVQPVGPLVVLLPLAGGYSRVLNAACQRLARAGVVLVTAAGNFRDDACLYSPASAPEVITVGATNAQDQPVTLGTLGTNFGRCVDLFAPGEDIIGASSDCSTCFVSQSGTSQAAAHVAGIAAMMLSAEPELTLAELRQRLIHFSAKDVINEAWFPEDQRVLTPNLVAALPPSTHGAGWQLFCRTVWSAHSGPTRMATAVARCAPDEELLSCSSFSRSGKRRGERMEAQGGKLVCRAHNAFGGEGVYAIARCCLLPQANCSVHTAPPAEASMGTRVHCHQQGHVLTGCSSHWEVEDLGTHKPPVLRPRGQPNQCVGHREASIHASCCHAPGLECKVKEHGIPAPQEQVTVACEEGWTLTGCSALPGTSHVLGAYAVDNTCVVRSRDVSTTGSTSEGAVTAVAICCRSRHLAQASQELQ
# [3] = molecular target: T2, PCSK9; experiment: 12 week study in hypercholesterolemic patients unable to tolerate a statin (Example 23); type: in vivo; conditions: statin-intolerant, preliminary
# Experimental: It is planned to enroll 150 subjects. […] Randomization will be stratified by screening LDL-C level (<130 mg/dL [3.4 mmol/L] vs ≥130 mg/dL) and statin use at baseline (yes vs no). Randomization should occur within 5-10 days of the screening LDL-C evaluation used to determine eligibility. Monoclonal antibody, 21B12, and placebo will be blinded. Ezetimibe is not blinded. Study visits are at weeks 2, 4, 8, and 12. […] The end-of-study visit and the last evaluation of lipids is at week 12.
# Males and females, ≥18 to ≤75 years of age, are eligible for this study. Subject must have tried at least 1 statin and have been unable to tolerate any dose or an increase in statin dose above the following total weekly maximum doses due to myalgia or myopathy: atorvastatin ≤70 mg, simvastatin ≤140 mg, pravastatin ≤140 mg, rosuvastatin ≤35 mg, lovastatin ≤140 mg, fluvastatin ≤280 mg. For unlisted statins, the maximal total weekly dose should not exceed 7 times the smallest available tablet size. Symptoms must have resolved when statin was discontinued or the dose reduced. If receiving statin (not exceeding the maximal dose defined above), bile-acid sequestering resin, and/or stanol therapy, the dose(s) must be stable for at least 4 weeks prior to LDL-C screening. If the subject is on ezetimibe at start of screening, ezetimibe must be discontinued for ≥4 weeks before LDL-C screening. Depending on their risk category (based on NCEP ATP III treatment goals) subjects must meet the following fasting LDL-C (by central laboratory) criteria at screening: ≥100 mg/dL (2.6 mmol/L) for subjects with diagnosed coronary heart disease (CHD) or CHD risk equivalent; ≥130 mg/dL (3.4 mmol/L) for subjects without diagnosed CHD or risk equivalent and 2 or more risk factors; ≥160 mg/dL (4.1 mmol/L) for subjects without diagnosed CHD or risk equivalent and with 1 or no risk factors. Fasting triglycerides must be ≤400 mg/dL (4.5 mmol/L) as determined by the central laboratory analysis at screening.
# [4] = molecular target: T2, PCSK9; experiment: 12 week monotherapy dose-ranging study, Framingham risk 10% or less (Example 24); type: in vivo; conditions: for Treatment difference vs ezetimibe in LDL-C percent change, week 12 / Treatment difference vs placebo in LDL-C percent change, week 12: P < 0.001; for mean percent reduction from baseline in LDL-C: monotherapy, preliminary
# Experimental: Ezetimibe was not blinded. The end-of-study visit and the last estimation of lipids was at week 12 for subjects on Q4W IP schedule or on ezetimibe and week 14 for subjects on Q2W IP schedule.
# Males and females, ≥18 to ≤75 years of age, were eligible for this study. Fasting LDL-C was ≥100 mg/dL (2.6 mmol/L) and ≤190 mg/dL (4.9 mmol/L) and fasting triglycerides ≤400 mg/dL (4.5 mmol/L) by central laboratory at screening.
# The primary endpoint was the percent change from baseline in LDL-C at week 12. Secondary endpoints included percent changes in apolipoprotein B (ApoB), lipoprotein (a) (Lp(a)), and in the ratio of total cholesterol to high-density lipoprotein (HDL)-C. Tolerability and safety were also evaluated.
# [5] = molecular target: T2, PCSK9; experiment: Aggregate data of the studies of Examples 22-25; type: in vivo
# [6] = 280 mg Q4W SC, end of dosing interval
# [7] = 350 mg Q4W SC, end of dosing interval
# T1 sequence (Q8NBP7 153-692 V474I/E620G/G670E): as the sequence (Q8NBP7 153-692) above, with V322I, E468G, G518E counted along it
molecule,measurement,setting,value
"21B12: human anti-PCSK9 monoclonal antibody, light/heavy variable region SEQ ID NO 23/49 (antibody, listed as Homo sapiens, V domains shown) VH: QVQLVQSGAEVKKPGASVKVSCKASGYTLTSYGISWVRQAPGQGLEWMGWVSFYNGNTNYAQKLQGRGTMTTDPSTSTAYMELRSLRSDDTAVYYCARGYGMDVWGQGTTVTVSS VL: QSALTQPASVSGSPGQSITISCTGTSSDVGGYNSVSWYQQHPGKAPKLMIYEVSNRPSGVSNRFSGSKSGNTASLTISGLQAEDEADYYCNSYTSTSMVFGGGTKLTVL",Kd,[1],0.015 nM
same,median AUC0-inf,[2]; 420 mg IV,1550 µg·days/mL
same,median maximum observed concentration (Cmax),[2]; 420 mg IV,139 µg/mL
same,anti-21B12 antibodies in serum,[2]; all 42 subjects who received 21B12,negative for anti-21B12 antibodies
same,subjects with treatment-emergent adverse events,"[2]; any dose, 29 of 42 subjects",69%
same,"effects on laboratory variables, ECGs, vital signs","[2]; human, in vivo",no trends indicative of clinically important effects
same,LDL-C nadir observed after dosing,"[2]; single dose, healthy subjects",≤ 2 weeks
same,suppression of PCSK9,[2]; single doses ≥70 mg SC,Complete suppression of PCSK9
same,LS mean percent increase from baseline in HDL-C,[3]; [6],8.62%
same,LS mean percent reduction from baseline in LDL-C,[3]; [6],38.79%
same,LS mean percent reduction from baseline in Lp(a),[3]; [6],27.38%
same,LS mean percent reduction from baseline in VLDL-C,[3]; [6],31.02%
same,LS mean percent reduction from baseline in non-HDL-C,[3]; [6],39.92%
same,LS mean percent reduction from baseline in total cholesterol,[3]; [6],31.03%
same,LS mean percent reduction from baseline in triglycerides,[3]; [6],15.35%
same,LS mean percent increase from baseline in HDL-C,[3]; [7],4.62%
same,LS mean percent reduction from baseline in LDL-C,[3]; [7],40.01%
same,LS mean percent reduction from baseline in Lp(a),[3]; [7],16.04%
same,LS mean percent reduction from baseline in VLDL-C,[3]; [7],38.14%
same,LS mean percent reduction from baseline in non-HDL-C,[3]; [7],42.86%
same,LS mean percent reduction from baseline in total cholesterol,[3]; [7],34.46%
same,LS mean percent reduction from baseline in triglycerides,[3]; [7],19.22%
same,LS mean percent increase from baseline in HDL-C,[3]; 420 mg Q4W SC,7.55%
same,LS mean percent reduction from baseline in LDL-C,[3]; 420 mg Q4W SC,50.63%
same,LS mean percent reduction from baseline in Lp(a),[3]; 420 mg Q4W SC,23.84%
same,LS mean percent reduction from baseline in VLDL-C,[3]; 420 mg Q4W SC,37.27%
same,LS mean percent reduction from baseline in non-HDL-C,[3]; 420 mg Q4W SC,53.49%
same,LS mean percent reduction from baseline in total cholesterol,[3]; 420 mg Q4W SC,42.23%
same,LS mean percent reduction from baseline in triglycerides,[3]; 420 mg Q4W SC,19.55%
same,"Least squares mean percent change from baseline in LDL-C, week 12",[4]; 70 mg Q2W SC (N = 45),−40.98%
same,"Treatment difference vs ezetimibe in LDL-C percent change, week 12",[4]; 70 mg Q2W SC,−26.73* %
same,"Treatment difference vs placebo in LDL-C percent change, week 12",[4]; 70 mg Q2W SC,−37.27* %
same,mean percent reduction from baseline in LDL-C,"[4]; 70 mg Q2W SC, end of dosing interval",41.21%
same,"Least squares mean percent change from baseline in LDL-C, week 12",[4]; 105 mg Q2W SC (N = 46),−43.87%
same,"Treatment difference vs ezetimibe in LDL-C percent change, week 12",[4]; 105 mg Q2W SC,−29.62* %
same,"Treatment difference vs placebo in LDL-C percent change, week 12",[4]; 105 mg Q2W SC,−40.17* %
same,mean percent reduction from baseline in LDL-C,"[4]; 105 mg Q2W SC, end of dosing interval",45.44%
same,"Least squares mean percent change from baseline in LDL-C, week 12",[4]; 140 mg Q2W SC (N = 45),−50.93%
same,"Treatment difference vs ezetimibe in LDL-C percent change, week 12",[4]; 140 mg Q2W SC,−36.68* %
same,"Treatment difference vs placebo in LDL-C percent change, week 12",[4]; 140 mg Q2W SC,−47.23* %
same,mean percent reduction from baseline in LDL-C,[4]; 140 mg Q2W SC,51.56%
same,"Least squares mean percent change from baseline in LDL-C, week 12",[4]; 280 mg Q4W SC (N = 45),−39.02%
same,"Treatment difference vs ezetimibe in LDL-C percent change, week 12",[4]; 280 mg Q4W SC,−25.17* %
same,"Treatment difference vs placebo in LDL-C percent change, week 12",[4]; 280 mg Q4W SC,−43.57* %
same,mean percent reduction from baseline in LDL-C,[4]; [6],37.53%
same,"Least squares mean percent change from baseline in LDL-C, week 12",[4]; 350 mg Q4W SC (N = 45),−43.20%
same,"Treatment difference vs ezetimibe in LDL-C percent change, week 12",[4]; 350 mg Q4W SC,−29.34* %
same,"Treatment difference vs placebo in LDL-C percent change, week 12",[4]; 350 mg Q4W SC,−47.74* %
same,mean percent reduction from baseline in LDL-C,[4]; [7],42.16%
same,"Least squares mean percent change from baseline in LDL-C, week 12",[4]; 420 mg Q4W SC (N = 45),−47.98%
same,"Treatment difference vs ezetimibe in LDL-C percent change, week 12",[4]; 420 mg Q4W SC,−34.14* %
same,"Treatment difference vs placebo in LDL-C percent change, week 12",[4]; 420 mg Q4W SC,−52.53* %
same,mean percent reduction from baseline in LDL-C,[4]; 420 mg Q4W SC,47.52%
same,change in LDL-C from baseline to week 12 greater than with placebo,[4]; final data,up to 72 mg/dL
same,mean reduction from baseline for ApoB,[4]; final data,up to 44%
same,mean reduction from baseline for Lp(a),[4]; final data,up to 29%
same,LDL-C reductions from baseline greater than ezetimibe,"[4]; week 12, final data",37%
same,least-squares (LS) mean percent reduction from baseline in LDL-C,"[4]; week 12, final data, across dose regimens",up to 51%
same,reduction from baseline in LDL-C at week 12,[5]; 140 mg Q2W,~60%
same,reduction from baseline in LDL-C at week 12,[5]; 420 mg Q4W,~56%
same,dose dependent reduction from baseline in ApoB,[5]; p values<0.001,36-53%
same,dose dependent reduction from baseline in non-HDL-C,[5]; p values<0.001,36-53%
same,dose dependent reduction from baseline in total cholesterol,[5]; p values<0.001,25-37%
